{
  "source": "patent US20240368249A1",
  "about": "(INTERVET, published 2024)",
  "binders": {"B1": {"name": "cIL-4Rα-13Rα2_ZW1-cFc (Fc fusion)", "chain 1": "VKVLHEPSCFSDYISTSVCQWKMDHPTNCSAELRLSYQLDFMGSENHTCVPENREDSVCVCSMPIDDAVEADVYQLDLWAGQQLLWSGSFQPSKHVKPRTPGNLTVHPNISHTWLLMWTNPYPTENHLHSELTYMVNVSNDNDPEDFKVYNVTYMGPTLRLAASTLKSGASYSARVRAWAQTYNSTWSDWSPSTTWLNYYEPWEQHLPPKRENGRVPRPPDCPKCPAPEMLGGPSVFIFPPKPKDTLLIARTPEVTCVVVDLDPEDPEVQISWFVDGKQMQTAKTQPREEQFNGTYRVVSVLPIGHQDWLKGKQFTCKVNNKALPSPIERTISKARGQAHQPSVYVYPPSREELSKNTVSLTCLIKDFFPPDIDVEWQSNGQQEPESKYRTTPPQLDEDGSYALVSKLSVDKSRWQRGDTFICAVMHEALHNHYTQESLSHSPGK", "chain 2": "SMLSNAEIKVNPPQDFEIVDPGYLGYLSLQWQPPLFPDNFKECTIEYELKYRNIDSENWKTIITKNLHYKDGFDLNKGIEAKINTLLPAQCTNGSEVRSSWAETTYWTSPQGNRETKIQDMDCVYYNWQYLVCSWKPGMGVHFDTNYQLFYWYEGLDHSAECTDYIKVNGKNMGCRFPYLESSDYKDFYICVNGSSESQPIRPSYFIFQLQNIVKPMPPDYLSLTVKNSEEINLKWNMPKGPIPAKCFIYEIEFTEDGTTWVTTTVENEIQITRTSNESQKLCFLVRSKVNIYCSDDGIWSEWSDEQCWKGDIWKETPKRENGRVPRPPDCPKCPAPEMLGGPSVFIFPPKPKDTLLIARTPEVTCVVVDLDPEDPEVQISWFVDGKQMQTAKTQPREEQFNGTYRVVSVLPIGHQDWLKGKQFTCKVNNKALPSPIERTISKARGQAHQPSVYVLPPSREELSKNTVSLLCLIKDFFPPDIDVEWQSNGQQEPESKYLTWPPQLDEDGSYFLYSKLSVDKSRWQRGDTFICAVMHEALHNHYTQESLSHSPGK"}},
  "target": "T1, canine IL-4 (canine, UniProt O77762 25-132, biotin-labeled in the OCTET assay)",
  "T1 sequence (looked up)": "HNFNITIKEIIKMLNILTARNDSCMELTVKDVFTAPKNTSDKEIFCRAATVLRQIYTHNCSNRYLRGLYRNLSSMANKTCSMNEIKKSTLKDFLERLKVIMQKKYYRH",
  "assay": "cell-based or functional assay",
  "data": [
    {"binder": "B1", "values": [
      {"measurement": "IC50 for inhibition of cIL-4 mediated STAT6 phosphorylation in DH82 cells, against that of cIL4Rα-cFc or cIL4Rα-IL13Rα1_ZW1-cFc", "value": "> 3 orders of magnitude higher"}
    ]}
  ]
}
